Test [1] has as its target T1, human B7-H3 on tumor cells (Hs578T, MDA-MB-436, MDA-MB-468, MDA-MB-231, MDA-MB-453, HT-29) (human, UniProt Q5ZPR3 29-534).
T1 construct: whole, on cells; also called target cells
T1 sequence (looked up): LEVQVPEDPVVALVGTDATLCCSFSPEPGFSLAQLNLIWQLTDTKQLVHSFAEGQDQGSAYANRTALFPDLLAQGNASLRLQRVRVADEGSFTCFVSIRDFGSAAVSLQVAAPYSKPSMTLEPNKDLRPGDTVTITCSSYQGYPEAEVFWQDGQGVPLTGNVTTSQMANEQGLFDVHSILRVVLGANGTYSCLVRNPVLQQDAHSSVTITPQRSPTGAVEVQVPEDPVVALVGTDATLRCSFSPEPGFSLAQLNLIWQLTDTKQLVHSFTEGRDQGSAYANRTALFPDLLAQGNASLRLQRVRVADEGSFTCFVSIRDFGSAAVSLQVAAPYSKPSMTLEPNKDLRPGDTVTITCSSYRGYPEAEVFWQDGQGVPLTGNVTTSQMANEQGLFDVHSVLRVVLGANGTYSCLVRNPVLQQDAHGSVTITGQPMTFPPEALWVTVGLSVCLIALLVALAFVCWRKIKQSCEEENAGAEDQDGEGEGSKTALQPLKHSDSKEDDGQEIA
Briefly: flow cytometry, MFI titration on HT-29 cells. As for the experimental part:
(§1) The collected cells were resuspended with 1% PBSB to adjust the cell density to 2×10⁶ cells/ml, placed in 96-well plates 100 μL (2×10⁵ cells) per well, and blocked for 0.5 hours at 4° C. The blocked cells were centrifuged to discard the supernatant, and a series of diluted antibodies mAb152 and mAb272 were added to the cells. The cells were incubated for 1 hour at 4° C., then centrifuged to discard the supernatant, and washed three times with a PBS solution with 1% BSA (PBSB). Diluted AF64-labeled goat anti-human IgG antibodies (Jackson, Cat. No. 109-605-088) were added to the cells, and the cells were incubated for 1 hour at 4° C. in the dark. The obtained cells were centrifuged to discard the supernatant and then washed twice with 1% PBSB, and cells in each well were resuspended with 100 μL of 1% paraformaldehyde (PF). The signal intensity was detected by flow cytometry. The analysis was performed with the mean fluorescence intensity (MFI) as the Y-axis and the antibody concentration as the X-axis through the software GraphPad Prism 7 to calculate the Kd values for the binding of the murine monoclonal antibodies to the tumor cells.
A general note: Flow cytometry measures light scatter and fluorescence of single cells or particles in a stream.

Test [2] concerns the target T1, human B7-H3 on tumor cells (Hs578T, …). Kind of test: flow cytometry, MFI titration on Hs578T cells. The procedure:
as §1

For test [3] the target is unchanged. Briefly: flow cytometry, MFI titration on MDA-MB-231 cells. The procedure:
as §1

For test [4] the target is unchanged. Kind of test: flow cytometry, MFI titration on MDA-MB-436 cells. As for the experimental part: as §1
For test [5] the target is unchanged. Briefly: flow cytometry, MFI titration on MDA-MB-453 cells. The procedure: as §1
For test [6] the target is unchanged. Briefly: flow cytometry, MFI titration on MDA-MB-468 cells. As for the experimental part:
as §1

Test [7] addresses T2, human B7-H3 (purchased from Acro Biosystems) (human, UniProt Q5ZPR3 29-461, limits assumed).
T2 construct: Bought protein coated on ELISA plates; also called human B7-H3 antigen; human B7-H3 molecules
T2 sequence (looked up): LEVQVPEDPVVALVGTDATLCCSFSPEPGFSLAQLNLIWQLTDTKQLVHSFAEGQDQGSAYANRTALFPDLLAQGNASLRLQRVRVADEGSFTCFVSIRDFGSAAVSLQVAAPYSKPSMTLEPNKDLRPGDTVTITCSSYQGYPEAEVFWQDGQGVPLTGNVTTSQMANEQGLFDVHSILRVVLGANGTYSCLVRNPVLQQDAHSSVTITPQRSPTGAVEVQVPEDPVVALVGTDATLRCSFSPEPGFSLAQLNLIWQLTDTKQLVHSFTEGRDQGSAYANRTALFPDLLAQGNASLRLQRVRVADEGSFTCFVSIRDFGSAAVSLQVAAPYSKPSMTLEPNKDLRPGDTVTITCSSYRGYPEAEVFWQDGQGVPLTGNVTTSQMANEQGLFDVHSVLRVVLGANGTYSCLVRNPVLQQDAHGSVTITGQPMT
Briefly: ELISA, plate coated with 0.1 µg/mL human B7-H3, HRP goat anti-mouse IgG detection. As for the experimental part: Plates were coated with 100 μL of 0.1 μg/mL human B7-H3 (purchased from Acro Biosystems) at room temperature overnight. The coating solution was discarded, and the wells were blocked for 0.5 hours with skimmed milk dissolved in phosphate buffered saline (PBS) and washed with PBS containing 0.05% Tween-20 (PBST). The murine antibodies mAb152 and mAb272 against human B7-H3 to be tested were then diluted to appropriate concentrations, added to plates, 50 μL per well, and incubated at room temperature for 1 hour. The wells were washed with 0.05% PBST, and then 50 μL of HRP-labeled goat anti-mouse IgG polyclonal antibodies (purchased from Jackson Laboratory) was added to each well as the detection antibody and incubated at 37° C. for 1 hour. The cells were washed three times with 0.05% PBST, TMB was added to the plates, 100 μL/well, and color development was performed at room temperature for 5 min. 0.2 M H₂SO₄ was added, 50 μL/well, to stop the color development reaction. The light absorbance values at 450 nm/620 nm were measured by a microplate reader. A graph was drawn by software GraphPad Prism 7 with the absorbance as the Y-axis and the antibody concentration as the X-axis.

For the next test, the target named is T3, His-labeled human B7-H3 (human, UniProt Q5ZPR3 29-461).
T3 construct: Coupled to a Ni-NTA sensor in BLI; also called antigen B7-H3; not shown: His label
T3 sequence (looked up): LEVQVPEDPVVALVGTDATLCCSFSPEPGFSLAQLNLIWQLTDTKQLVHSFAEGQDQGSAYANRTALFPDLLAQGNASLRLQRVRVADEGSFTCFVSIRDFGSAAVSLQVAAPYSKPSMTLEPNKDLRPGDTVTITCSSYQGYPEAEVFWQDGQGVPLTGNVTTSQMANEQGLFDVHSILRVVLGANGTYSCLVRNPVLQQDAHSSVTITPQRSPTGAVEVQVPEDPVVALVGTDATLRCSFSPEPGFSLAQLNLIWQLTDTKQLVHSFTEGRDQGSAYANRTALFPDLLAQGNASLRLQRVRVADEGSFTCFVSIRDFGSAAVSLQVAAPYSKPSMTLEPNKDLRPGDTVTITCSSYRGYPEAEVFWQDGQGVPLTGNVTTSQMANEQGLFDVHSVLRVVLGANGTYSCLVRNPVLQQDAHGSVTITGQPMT
Kind of test: BLI (ForteBio Octet), His-labeled human B7-H3 on Ni-NTA sensor, antibody 3.125-100 nM. The procedure: The binding affinity constants of the purified murine monoclonal antibodies to the antigen B7-H3 were determined by bio-layer interferometry (BLI) with a ForteBio Octet RED&QK system from PALL Corporation.

Test [8] addresses T4, murine B7-H3 protein (Sino Biological Inc. Beijing) (mouse, UniProt Q8VE98 29-244, limits assumed).
T4 construct: Bought protein coated on ELISA plates; also called mouse B7-H3 antigen; murine B7-H3 antigen
T4 sequence (looked up): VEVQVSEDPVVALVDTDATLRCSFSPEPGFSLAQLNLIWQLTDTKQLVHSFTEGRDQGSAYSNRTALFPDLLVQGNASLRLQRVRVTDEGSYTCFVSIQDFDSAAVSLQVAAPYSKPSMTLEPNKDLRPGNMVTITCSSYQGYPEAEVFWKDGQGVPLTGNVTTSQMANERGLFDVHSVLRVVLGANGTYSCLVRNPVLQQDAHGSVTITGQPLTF
Kind of test: ELISA, plate coated with 0.1 µg/mL murine B7-H3, HRP-labeled antibody, OD 450/620 nm. The procedure:
(§2) The cross-reactivity of the anti-B7-H3 murine monoclonal antibodies with mouse and Cynomolgus monkey B7-H3 antigens was detected in this example.
(§3) Specific experimental procedures are as follows: The plates were coated with 100 μL of 0.1 μg/mL Cynomolgus monkey B7-H3 and murine B7-H3 proteins (Sino Biological Inc. Beijing) at room temperature overnight. The coating solution was discarded, and the wells were blocked for 0.5 hours with skimmed milk dissolved in phosphate buffered saline (PBS) and washed with PBS containing 0.05% Tween-20. 50 μL of purified HRP-labeled B7-H3 monoclonal antibodies was added to each well and incubated at room temperature for 1 hour. The cells were washed five times with PBS containing 0.05% Tween-20, 100 μL of TMB was added to each well, and color development was performed at room temperature for 5 min. 50 μL of 2N H₂SO₄ was added to each well to stop the color development reaction. The values at 450 nm were measured by a microplate reader. The results were imported into Graph Prism to calculate EC₅₀ values.

Test [9] concerns the target T5, Cynomolgus monkey B7-H3 protein (Sino Biological Inc. Beijing) (Cynomolgus monkey).
T5 construct: Bought protein coated on ELISA plates; also called monkey B7-H3 antigen
Briefly: ELISA, plate coated with 0.1 µg/mL Cynomolgus monkey B7-H3, HRP-labeled antibody, OD 450/620 nm. The procedure:
as §2, §3
(In general: ELISA stands for enzyme-linked immunosorbent assay.)

Some results are limits rather than exact numbers.

B1: murine monoclonal antibody mAb152 (antibody, V domains shown)
VH: QVQLQQPGAELVRPGASVKLSCKASGYTFTAYWMNWVKQRPDQGLEWIGRIDPYDSETRYNQNFRDKARLTVDKSSSTAYMQLSSLTSEDSAVFYCARGVRIFDYWGQGTTLTVSS
VL: DIQMTQSPASLAASVGETVTITCRTSENIDYTLAWYQQKPGKSPQLLIYNANTLEDGVPSRFSGSGSGTHFSLKINSMQPEDTATYFCKQAYDVPRTFGGGTKLEIK
In general, Kd refers to the free concentration of one partner at which half of the binding sites on the other are occupied at equilibrium, for simple one-to-one binding. Usually EC50 stands for the concentration needed to bring the measured effect to its halfway point. As a reminder, the koff is a measure of how fast the partners let go of each other. Usually kon stands for the rate constant with which the complex forms. In general, EC50 (read off the curve) refers to the concentration that produces a half-maximal response. On to B1, for which the Kd in test [1] was 1.25 nM; in [2], 0.835 nM; in [3], 0.227 nM; in test [4], 5.05 nM; in test [5], 0.273 nM; in [6] it was 2.6 nM. The molecule further had a Kd with His-labeled human B7-H3 of 0.015 nM. Also, in test [7], the EC50 stood at 6.69 ng/mL. Also, the koff with His-labeled human B7-H3 turned out to be 3.09e-06 s⁻¹. For the same molecule, the kon with His-labeled human B7-H3 is 207000 M⁻¹ s⁻¹. The binding result in test [8] is reported as “no binding (tested: 10 µg/mL)”. Moreover, the “EC50 (read off the curve)” value in [9] was around 6 ng/mL.

B2: murine monoclonal antibody mAb272 (antibody, V domains shown)
VH: QVQLQQPGAELVRPGASVKLSCKASGYTFTAYWMNWVKQRPDQGLEWIGRIDPYDSETRYNQNFRDKARLTVDKSSSTAYMQLSSLTSEDSAVFYCARGVRIFDYWGQGTTLTVSS
VL: DIQMTQSPASLAASVGETVTITCRTSENIDYTLAWYQQKPGKSPQLLIYNANTLEDGVPSRFSGSGSGTLFSLKINNMQPEDTATYFCKQAYDVPRTFGGGTKLEIK
Turning to B2, the Kd in test [1] came to 2.35 nM; in test [2], 1.2 nM; in test [3] it was 0.204 nM; in test [4] it was 5.11 nM; in [5], 0.239 nM; in test [6] it was 3.24 nM. The Kd in the test with His-labeled human B7-H3 is below 0.001 nM. The EC50 in [7] is 6.16 ng/mL. Moreover, in the test with His-labeled human B7-H3, the koff was below 1e-07 s⁻¹. In addition, the kon with His-labeled human B7-H3 amounted to 220000 M⁻¹ s⁻¹. Besides, the binding result in [8] was “no binding (tested: 10 µg/mL)”. The “EC50 (read off the curve)” value in test [9] is around 5 ng/mL.

These data come from patent US20240317862A1 (AMPSOURCE BIOPHARMA SHANGHAI, published 2024).
